Test results: PMC3367397 (Nature, 2012)

Molecular target: T1, Angptl2-FLAG (human, UniProt Q9UKU9 23-493)
T1 sequence (looked up): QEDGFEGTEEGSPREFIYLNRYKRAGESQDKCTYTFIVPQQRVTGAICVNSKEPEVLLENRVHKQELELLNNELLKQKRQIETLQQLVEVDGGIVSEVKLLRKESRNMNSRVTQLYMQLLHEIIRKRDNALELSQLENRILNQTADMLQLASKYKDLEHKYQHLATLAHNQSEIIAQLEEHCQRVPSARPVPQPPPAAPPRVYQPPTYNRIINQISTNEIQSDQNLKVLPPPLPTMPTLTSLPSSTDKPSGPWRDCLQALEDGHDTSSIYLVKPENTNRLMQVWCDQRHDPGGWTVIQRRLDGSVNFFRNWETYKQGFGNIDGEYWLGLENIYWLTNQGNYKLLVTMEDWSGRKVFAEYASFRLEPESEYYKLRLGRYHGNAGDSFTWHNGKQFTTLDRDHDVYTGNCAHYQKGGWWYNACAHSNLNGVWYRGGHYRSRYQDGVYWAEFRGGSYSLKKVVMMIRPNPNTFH
Assay: co-IP

- binding result: binds
B1: LILRB2 extracellular domain (ECD) fused to human IgG-Fc (Fc fusion, UniProt Q8N423 22-460, looked up)
chain: QTGTIPKPTLWAEPDSVITQGSPVTLSCQGSLEAQEYRLYREKKSASWITRIRPELVKNGQFHIPSITWEHTGRYGCQYYSRARWSELSDPLVLVMTGAYPKPTLSAQPSPVVTSGGRVTLQCESQVAFGGFILCKEGEDEHPQCLNSQPHARGSSRAIFSVGPVSPNRRWSHRCYGYDLNSPYVWSSPSDLLELLVPGVSKKPSLSVQPGPVMAPGESLTLQCVSDVGYDRFVLYKEGERDLRQLPGRQPQAGLSQANFTLGPVSRSYGGQYRCYGAHNLSSECSAPSDPLDILITGQIRGTPFISVQPGPTVASGENVTLLCQSWRQFHTFLLTKAGAADAPLRLRSIHEYPKYQAEFPMSPVTSAHAGTYRCYGSLNSDPYLLSHPSEPLELVVSGPSMGSSPPPTGPISTPGPEDQPLTPTGSDPQSGLGRHLGV
